Reference: PMC10988696, “FLIM‐FRET‐based analysis of S100A11/annexin interactions in living cells” (FEBS Open Bio, 2024)
Where two headings read alike, the source gives them in different places. Each block holds one molecule with its values, some of them ahead of it.

Assays:
Assay in all cases: FRET or BRET; FLIM-FRET (EGFP donor lifetime, mCherry acceptor) in living U2OS cells co-transfected with both constructs, imaged in PBS 42-45 h after transfection, normal cytosolic calcium; E = 1 - tauDA/tauD from amplitude-weighted mean lifetimes
EGFP-ANXA2 = target: T1, EGFP-ANXA2 (human, UniProt P07355 1-339)
T1 construct: human annexin A2 (ANXA2) with the fluorescent protein tag in the altered orientation (EGFP-ANXA2); The cloning of this orientation is not described in the methods; source: U2OS or HEK293T cells, transfected (calcium phosphate), in living cells; not shown: EGFP, N-terminal, kept
T1 sequence (P07355 whole entry): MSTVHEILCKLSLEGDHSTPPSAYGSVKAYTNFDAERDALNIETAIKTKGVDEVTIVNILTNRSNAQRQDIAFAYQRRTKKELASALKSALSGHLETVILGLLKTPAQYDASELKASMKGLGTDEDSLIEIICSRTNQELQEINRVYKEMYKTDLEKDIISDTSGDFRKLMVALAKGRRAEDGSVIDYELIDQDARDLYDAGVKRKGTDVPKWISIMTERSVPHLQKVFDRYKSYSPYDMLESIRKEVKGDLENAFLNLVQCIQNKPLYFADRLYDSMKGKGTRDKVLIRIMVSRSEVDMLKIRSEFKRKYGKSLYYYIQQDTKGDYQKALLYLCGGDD

ANXA1-EGFP = target: T2, ANXA1-EGFP (human, UniProt P04083 1-346); details: partners not purified
T2 construct: human annexin A1, PCR amplified from A431 cDNA; cloned in pEGFP-N1 (XhoI, BamHI); End of the tag read from the label ANXA1-EGFP and the vector pEGFP-N1; also called annexin A1; source: U2OS cells, transfected (calcium phosphate), in living cells; not shown: EGFP, C-terminal, kept
T2 sequence (looked up): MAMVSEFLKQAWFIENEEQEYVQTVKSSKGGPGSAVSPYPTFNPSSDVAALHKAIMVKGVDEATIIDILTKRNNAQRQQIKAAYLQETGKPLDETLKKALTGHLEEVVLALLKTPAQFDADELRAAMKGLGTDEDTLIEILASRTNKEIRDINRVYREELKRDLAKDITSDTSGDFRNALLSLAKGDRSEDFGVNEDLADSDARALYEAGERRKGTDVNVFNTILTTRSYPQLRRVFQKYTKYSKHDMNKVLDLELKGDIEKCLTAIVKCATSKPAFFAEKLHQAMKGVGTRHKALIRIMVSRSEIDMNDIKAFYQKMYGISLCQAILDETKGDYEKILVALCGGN

ANXA2-EGFP = target: T3, ANXA2-EGFP (human, UniProt P07355 1-339); details: partners not purified
T3 construct: human annexin A2 (ANXA2); EGFP is the FRET donor; also called annexin A2; source: U2OS cells, transfected (calcium phosphate), in living cells; not shown: EGFP, C-terminal, kept
T3 sequence (P07355 whole entry): as the sequence (P07355 whole entry) above

ANXA4-EGFP = target: T4, ANXA4-EGFP (human, UniProt P09525 1-319); details: partners not purified
T4 construct: human annexin A4, PCR amplified from A431 cDNA; cloned in pEGFP-N1 (HindIII, BamHI); also called annexin A4; source: U2OS cells, transfected (calcium phosphate), in living cells; not shown: EGFP, C-terminal, kept
T4 sequence (looked up): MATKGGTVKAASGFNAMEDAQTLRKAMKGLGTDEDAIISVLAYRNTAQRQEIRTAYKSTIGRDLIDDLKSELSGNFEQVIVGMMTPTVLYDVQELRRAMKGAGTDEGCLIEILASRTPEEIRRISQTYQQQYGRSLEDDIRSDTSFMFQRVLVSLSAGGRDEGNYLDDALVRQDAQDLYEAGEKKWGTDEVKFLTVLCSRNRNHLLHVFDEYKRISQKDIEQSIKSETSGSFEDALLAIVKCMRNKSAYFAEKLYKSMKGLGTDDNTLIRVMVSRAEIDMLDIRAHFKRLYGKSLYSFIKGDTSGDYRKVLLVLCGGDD

AnxA6-EGFP = target: T5, AnxA6-EGFP (rat, UniProt P48037 1-673); details: partners not purified
T5 construct: rat annexin A6; plasmid provided by C; End of the tag read from the label AnxA6-EGFP; also called rat annexin A6; source: U2OS cells, transfected (calcium phosphate), in living cells; not shown: EGFP, C-terminal, kept
T5 sequence (looked up): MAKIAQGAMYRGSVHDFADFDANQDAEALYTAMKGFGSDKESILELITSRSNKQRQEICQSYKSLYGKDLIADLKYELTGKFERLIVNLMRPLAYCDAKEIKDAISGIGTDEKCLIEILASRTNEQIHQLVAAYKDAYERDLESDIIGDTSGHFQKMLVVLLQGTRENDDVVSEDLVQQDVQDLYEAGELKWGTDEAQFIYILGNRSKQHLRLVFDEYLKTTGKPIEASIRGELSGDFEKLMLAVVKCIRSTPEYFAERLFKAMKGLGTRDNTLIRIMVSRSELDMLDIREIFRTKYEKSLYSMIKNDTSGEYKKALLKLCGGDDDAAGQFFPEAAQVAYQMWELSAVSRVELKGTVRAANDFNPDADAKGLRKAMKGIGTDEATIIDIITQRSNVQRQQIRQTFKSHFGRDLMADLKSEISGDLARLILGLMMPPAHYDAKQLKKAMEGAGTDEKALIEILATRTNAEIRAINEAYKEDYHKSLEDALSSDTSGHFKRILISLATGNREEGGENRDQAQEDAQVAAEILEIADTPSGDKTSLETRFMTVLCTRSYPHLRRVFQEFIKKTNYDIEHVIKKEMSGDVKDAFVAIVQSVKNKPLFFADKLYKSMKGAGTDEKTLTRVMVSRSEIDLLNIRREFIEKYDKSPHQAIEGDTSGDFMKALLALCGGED

- FRET efficiency (E) (EGFP-ANXA2): 3.7%
Molecule: S100A11ΔCa-mCherry (from UniProt P31949 1-105) (natural protein)

- FRET efficiency (E) (EGFP-ANXA2; partners not purified): ~9%
- FRET efficiency (E) (ANXA1-EGFP): 5.3%
- FRET efficiency (E) (ANXA2-EGFP): 7.5%
- FRET efficiency (E) (ANXA4-EGFP): ~5%
- FRET efficiency (E) (AnxA6-EGFP): ~6%
B1: S100A11-mCherry (natural protein, human, UniProt P31949 1-105, looked up)
chain: MAKISSPTETERCIESLIAVFQKYAGKDGYNYTLSKTEFLSFMNTELAAFTKNQKDPGVLDRMMKKLDTNSDGQLDFSEFLNLIGGLAMACHDSFLKAVPSQKRT
notes: human S100A11 wild type; cloned in pmCherry-N1 (EcoRI, BamHI); End of the tag read from the label S100A11-mCherry and the vector pmCherry-N1; also called S100A11wt; wild-type S100A11-mCherry; source: U2OS or HEK293T cells, transfected (calcium phosphate), in living cells; not shown: mCherry, C-terminal, kept
